Paper PMC10033410 (Nature, 2023)

Molecular target: T1, human APOBEC3G (human, UniProt Q9HC16 1-384)
T1 construct: also called A3G; hA3G; not shown: Strep-tag, C-terminal, kept
Test: cryo-EM structure; single-particle cryo-EM of the co-expressed, co-purified complex (SEC peak fraction, 1.9 μM; 30 mM HEPES, 150 mM NaCl, 5% glycerol, 1 mM TCEP); co-purified insect-cell ssRNA between A3G and Vif; monomer map 2.7 Å, dimer states 1, 1' and 2
Settings: both partners purified

T1 sequence (Q9HC16 whole entry): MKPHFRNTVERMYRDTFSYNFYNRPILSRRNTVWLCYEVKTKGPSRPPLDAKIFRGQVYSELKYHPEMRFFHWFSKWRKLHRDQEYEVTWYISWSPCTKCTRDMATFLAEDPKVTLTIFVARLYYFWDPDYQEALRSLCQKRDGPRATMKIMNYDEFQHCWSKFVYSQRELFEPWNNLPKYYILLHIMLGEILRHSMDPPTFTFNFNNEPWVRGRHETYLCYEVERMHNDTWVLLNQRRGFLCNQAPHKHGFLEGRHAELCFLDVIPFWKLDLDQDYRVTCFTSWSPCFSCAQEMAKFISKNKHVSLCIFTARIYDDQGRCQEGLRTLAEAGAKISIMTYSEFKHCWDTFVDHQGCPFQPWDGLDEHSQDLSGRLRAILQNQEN

B1: HIV-1 HXB2 Vif (natural protein)
chain: not shown
notes: also called Vif_(HXB2)
binding result: binds
